# Measurements reported in patent publication US20220242958A1, “BISPECIFIC NANOBODIES” (Ablynx N.V., priority 2013, published 2022).
# Residue numbers refer to the chain shown, from its start. In names and notes the source's numbering stands.
# T1: recombinant IL-3Rα ectodomain (Homo sapiens, UniProt P26951)
# T1 construct: Immobilisation of recombinant IL-3Rα ectodomain (Sino Biologicals) was done until 761 RU; purchased Sino Biologicals
# T1 sequence (P26951 19-305 limits assumed): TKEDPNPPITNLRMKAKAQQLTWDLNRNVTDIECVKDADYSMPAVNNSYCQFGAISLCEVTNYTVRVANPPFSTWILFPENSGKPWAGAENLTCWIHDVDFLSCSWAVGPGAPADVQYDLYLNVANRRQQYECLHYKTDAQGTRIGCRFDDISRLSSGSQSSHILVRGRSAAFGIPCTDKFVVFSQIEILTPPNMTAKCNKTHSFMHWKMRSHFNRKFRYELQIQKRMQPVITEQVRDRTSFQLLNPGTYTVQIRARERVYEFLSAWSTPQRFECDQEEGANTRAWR
# T2: human IL12Rβ2 extracellular domain Fc-fusion (Homo sapiens, UniProt Q99665)
# T2 construct: Fc-fusions of human IL12Rβ1, IL12Rβ2 and IL-23R extracellular domains; purchased R&D Systems #1959-B2
# T2 sequence (Q99665 24-622 limits assumed): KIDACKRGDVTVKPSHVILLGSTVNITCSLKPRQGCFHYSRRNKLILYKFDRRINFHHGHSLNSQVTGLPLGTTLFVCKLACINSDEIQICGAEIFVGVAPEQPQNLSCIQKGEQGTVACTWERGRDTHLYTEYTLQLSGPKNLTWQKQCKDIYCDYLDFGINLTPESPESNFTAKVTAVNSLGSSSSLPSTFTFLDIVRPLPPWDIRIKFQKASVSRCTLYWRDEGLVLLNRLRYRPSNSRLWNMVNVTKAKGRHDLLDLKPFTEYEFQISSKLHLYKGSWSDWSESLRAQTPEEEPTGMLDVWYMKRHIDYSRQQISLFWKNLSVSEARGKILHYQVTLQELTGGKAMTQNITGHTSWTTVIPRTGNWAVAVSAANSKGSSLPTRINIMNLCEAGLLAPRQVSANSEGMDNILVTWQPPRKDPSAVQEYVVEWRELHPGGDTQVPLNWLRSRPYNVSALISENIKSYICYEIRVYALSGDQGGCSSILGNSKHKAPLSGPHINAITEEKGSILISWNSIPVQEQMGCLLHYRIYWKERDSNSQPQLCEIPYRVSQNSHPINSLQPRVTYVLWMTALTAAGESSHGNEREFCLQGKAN
# T3: human IL-23R extracellular domain Fc-fusion (Homo sapiens, UniProt Q5VWK5)
# T3 construct: Fc-fusions of human IL12Rβ1, IL12Rβ2 and IL-23R extracellular domains; purchased R&D Systems #1400-IR
# T3 sequence (Q5VWK5 24-355 limits assumed): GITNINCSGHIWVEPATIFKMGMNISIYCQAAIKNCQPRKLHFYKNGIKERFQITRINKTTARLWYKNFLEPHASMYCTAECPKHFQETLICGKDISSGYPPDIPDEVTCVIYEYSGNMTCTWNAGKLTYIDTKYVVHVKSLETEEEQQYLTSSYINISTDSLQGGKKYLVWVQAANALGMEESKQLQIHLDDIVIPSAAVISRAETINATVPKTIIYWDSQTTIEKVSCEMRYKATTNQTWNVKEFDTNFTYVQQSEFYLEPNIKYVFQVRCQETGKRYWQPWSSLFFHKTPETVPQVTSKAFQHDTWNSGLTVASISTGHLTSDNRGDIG
# T4: hCEACAM5 (Homo sapiens, UniProt P06731)
# T4 construct: purchased R&D Systems 4128-CM
# T4 sequence (P06731 35-676): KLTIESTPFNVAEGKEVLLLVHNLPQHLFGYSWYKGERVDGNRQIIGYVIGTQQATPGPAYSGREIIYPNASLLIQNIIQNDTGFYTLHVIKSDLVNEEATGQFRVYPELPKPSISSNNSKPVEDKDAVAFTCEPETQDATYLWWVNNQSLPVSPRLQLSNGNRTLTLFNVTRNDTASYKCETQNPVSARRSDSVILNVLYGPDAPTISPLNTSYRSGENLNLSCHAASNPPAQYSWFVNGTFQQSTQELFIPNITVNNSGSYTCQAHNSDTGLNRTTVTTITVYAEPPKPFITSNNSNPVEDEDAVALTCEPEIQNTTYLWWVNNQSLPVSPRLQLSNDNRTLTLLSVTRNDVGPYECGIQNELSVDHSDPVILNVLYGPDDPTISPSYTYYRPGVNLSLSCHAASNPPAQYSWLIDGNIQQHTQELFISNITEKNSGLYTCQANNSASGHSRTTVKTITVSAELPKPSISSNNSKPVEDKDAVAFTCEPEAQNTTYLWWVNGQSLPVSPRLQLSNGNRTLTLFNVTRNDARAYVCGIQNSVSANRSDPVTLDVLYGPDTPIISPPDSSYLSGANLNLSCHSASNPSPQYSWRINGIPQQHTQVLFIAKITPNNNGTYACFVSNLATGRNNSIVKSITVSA
# B1: 55F03: CD123 building block, SEQ ID NO: 13 (protein)
# VHH: EVQLVESGGGLVQAGGPLRLSCAASGRTFSSYVMGWFRQAPGKEREFVAAIYWSNGKTQYTDSVKGRFTISGDNAKNTVYLQMNSLNPEDTAVYYCVADKDETGFRTLPIAYDYWGLGTQVTVSS
# B2: 55C05: CD123 building block, SEQ ID NO: 11 (protein)
# VHH: EVQLVESGGGLVPAGDSLRLSCVASGRSLNTYTMGWFRQAPGKECEFVAAINWNGVYRDYADSAKGRFTASRDNAMNTVFLQMNSLKPEDTAVYFCATATQGWDRHTEPSDFGSWGLGTQVTVSS
# B3: IL12Rb2#1: IL-12Rβ2 specific ligand competing Nanobody (protein)
# VHH: EVQLVESGGRLVQAGDSLRLSCAASGRTFISYRMGWFRQAPGKEREFVAALRWSSSNIDYTYYADSVKGRFSISGDYAKNTVYLQMNSLKAEDTAVYYCAASTRWGVMESDTEYTSWGQGTLVTVSS
# B4: IL12Rb2#2: IL-12Rβ2 specific ligand competing Nanobody (protein)
# VHH: B3 VHH with I30T, A49S, S56G
# B5: 50F07: CD123 building block, SEQ ID NO: 12 (protein)
# VHH: EVQLVESGGGLVQPGGSLRLSCTGSGSTFSINAMGWYRQAPGKQRELVAAITSGGRTNYADSVKGRFTISRDNSKNTVYLQMNSLRPEDTAVYYCNARISAGTAFWLWSDYEYWGLGTLVTVSS
# B6: IL23R#19: IL-23R specific ligand competing Nanobody (protein)
# VHH: EVQLVESGGGLVQPGGSLTLSCVASGRTFSTDVMGWFRQAPGKEREFVAAHRTSGISTVYAASVKGRFTISRDNAKNTVYLGMKSLKPEDTAVYVCAAGSDASGGYDYWGQGTLVTVSS
# B7: 55B04: CD123 building block, SEQ ID NO: 9 (protein)
# VHH: EVQLVESGGGLVQPGGSLRLSCAASGINFRFNSMGWWRRRAPGKEREWVAAITSGDITNYRDSVRGRFTISRDNVKNTVYLQMNTLKLEDTAVYYCNTFPPIADYWGLGTQVTVSS
# B8: CEA#5: NbCEA5(K43Q, G47A, T73N, V78L) (protein)
# VHH: EVQLVESGGGSVQAGGSLRLSCAASGDTYGSYWMGWFRQAPGQEREAVAAINRGGGYTVYADSVKGRFTISRDNAKNTLYLQMNSLRPDDTADYYCAASGVLGGLHEDWFNYWGQGTLVTVSS
# B9: CEA#2: humanised NbCEA5 variant (S11L, A14P, K43Q, E44G, R45L, G47A, T73N, A74S, V78L, P84A, D85E, D89V) (protein)
# VHH: B8 VHH with S11L, A14P, E44G, R45L, A75S, P88A, D89E, D93V
# B10: 51D09: CD123 building block, SEQ ID NO: 10 (protein)
# VHH: EVQLVESGGGLVQPGGSLRLSCAASGSIFSGNTMGWYRQAPGKQRELVAAISSGGSTDYADSVKGRFTISRDNSKNTVYLQMNSLRPEDTAVYYCNAAILLYRLYGYEEGDYWGLGTLVTVSS
# Tests used:
# [1] = molecular target: T1, recombinant IL-3Rα ectodomain; assay: SPR (ProteOn) on recombinant IL-3Rα ectodomain; assay type: binding
# Protocol: The affinities of CD123 specific Nanobodies were further investigated via Surface Plasmon Resonance (SPR) at ProteOn. Immobilisation of recombinant IL-3Rα ectodomain (Sino Biologicals) was done until 761 RU. The Nanobodies were applied at a highest concentration of 1 μM, followed by a three-fold titration, covering 5 further concentrations ranging from 1 μM to 4.1 nM. These were then applied in a single injection cycle, utilising the ProteOn's specific one-shot kinetics approach for kinetic analysis. Evaluation of the association/dissociation data was performed by fitting a 1:1 interaction model (Langmuir binding model). […] For CD123 Nanobodies the obtained KD values correlated well with the apparent affinities retrieved by cell binding EC50 values (see Table 3).
# [2] = molecular target: T2, human IL12Rβ2 extracellular domain Fc-fusion; assay: SPR (Biacore T100) on IL12Rβ2-Fc; assay type: binding
# Protocol: (§1) The precise binding affinities of the purified Nanobodies were determined in a multi-cycle kinetic analysis using Surface Plasmon Resonance analysis (Biacore T100) on Fc-fusions of human IL12Rβ1, IL12Rβ2 and IL-23R extracellular domains (R&D Systems, #839-B1, #1959-B2, #1400-IR). Sensorchips CM5 were immobilized with anti-hIgG antibody (GE Healthcare, BR-1008-39), after which receptors were captured at 5 μg/ml protein and contact time of 120 seconds. Running buffer used was HBS-EP+ (GE Healthcare, BR-1006-69) at 25° C., with a flow-rate of […]. For immobilization by amine coupling, EDC/NHS was used for activation and ethanolamine HCl for deactivation (Biacore, amine coupling kit). Nanobodies were evaluated at a concentration range between 1.37 nM and 3 μM. Nanobodies were allowed to associate for 2 min and to dissociate for 15 min at a flow rate of […]. In between injections, the surfaces were regenerated with a 3 min pulse of 3M MgCl2 and 2 min stabilization period. Evaluation of the association/dissociation data was performed by fitting a 1:1 interaction model (Langmuir binding model) by Biacore TWO software v2.0.3.
# [3] = test system: CD8+/CD4− gated and CD4+ gated T cells; assay: Multi-colour FACS on TH1 activated T cells gated for CD8 or CD4; assay type: binding, human; settings: donor D838; anti-flag-APC detection
# Protocol: To elucidate if CD4-IL12R bispecific polypeptides preferentially bind to the CD4+/IL12R+ TH1 cell subset within the pool of T cells, Nanobody binding was analysed to a pool of activated T cells gated for either CD8 (detected by Anti-hu CD8 PE-Cy7 conjugated monoclonal antibody (BD 557746) or CD4 (detected by Anti-hu CD4 alexa Fluor 488-conjugated polyclonal antibody (R&D FAB8165G) in a multi-colour FACS experiment. Nanobody binding to the CD8+/CD4− gated cells and to CD4+ gated cells was determined using anti-flag-APC (Prozyme PJ255) detection. In this experiment TH1 activated T cells from the same donor (D838) as shown in FIG. 3.6 were used.
# [4] = molecular target: T3, human IL-23R extracellular domain Fc-fusion; assay: SPR (Biacore T100) on IL-23R-Fc; assay type: binding
# Protocol: as §1
# hCEACAM5 = molecular target: T4, hCEACAM5; assay: SPR (Biacore T100) on hCEACAM-5; assay type: binding
# Protocol: In between injections, the surfaces were regenerated with a 5 sec pulse of 10 mM Glycine-HCl pH1.5 and 1 min stabilization period. Evaluation of the association/dissociation data was performed by fitting a 1:1 interaction model (Langmuir binding model) by Biacore T100 software v2.0.3. The affinity constant KD was calculated from resulting association and dissociation rate constants ka and kd and are shown in Table 4.2. The observed affinity of the NbCEA5 Nanobody (designated as CEA#1) and humanised variant (CEA#2) was in line with the reported value.
molecule,measurement,setting,value
B1,SPR - IL-3Ra ka,[1],42500 M⁻¹ s⁻¹
same,SPR - IL-3Ra kd,[1],0.00487 s⁻¹
B2,SPR - IL-3Ra ka,[1],126000 M⁻¹ s⁻¹
same,SPR - IL-3Ra kd,[1],0.00741 s⁻¹
B3,"Binding kinetics (SPR) ka (1/Ms), IL12Rβ2",[2],210000 M⁻¹ s⁻¹
same,"Binding kinetics (SPR) kd (1/s), IL12Rβ2",[2],0.00057 s⁻¹
same,binding to CD4+ gated and CD8+ gated T cells,[3],low fluorescence signals to both CD4+ and CD8+ cells
B4,"Binding kinetics (SPR) ka (1/Ms), IL12Rβ2",[2],270000 M⁻¹ s⁻¹
same,"Binding kinetics (SPR) kd (1/s), IL12Rβ2",[2],0.0018 s⁻¹
B5,SPR - IL-3Ra ka,[1],102000 M⁻¹ s⁻¹
same,SPR - IL-3Ra kd,[1],0.00758 s⁻¹
B6,"Binding kinetics (SPR) ka (1/Ms), IL-23R",[4],730000 M⁻¹ s⁻¹
same,"Binding kinetics (SPR) kd (1/s), IL-23R",[4],0.0081 s⁻¹
B7,SPR - IL-3Ra ka,[1],504000 M⁻¹ s⁻¹
same,SPR - IL-3Ra kd,[1],0.00794 s⁻¹
B8,hCEACAM5 ka,hCEACAM5,1.1e+06 M⁻¹ s⁻¹
same,hCEACAM5 kd,hCEACAM5,0.0033 s⁻¹
B9,hCEACAM5 ka,hCEACAM5,1.3e+06 M⁻¹ s⁻¹
same,hCEACAM5 kd,hCEACAM5,0.0025 s⁻¹
B10,SPR - IL-3Ra ka,[1],37800 M⁻¹ s⁻¹
same,SPR - IL-3Ra kd,[1],0.000516 s⁻¹
